This data set deals with T1, Zbed4 (mouse (cDNA from mouse retinal RNA), UniProt Q80WQ9 1-1168).
T1 sequence: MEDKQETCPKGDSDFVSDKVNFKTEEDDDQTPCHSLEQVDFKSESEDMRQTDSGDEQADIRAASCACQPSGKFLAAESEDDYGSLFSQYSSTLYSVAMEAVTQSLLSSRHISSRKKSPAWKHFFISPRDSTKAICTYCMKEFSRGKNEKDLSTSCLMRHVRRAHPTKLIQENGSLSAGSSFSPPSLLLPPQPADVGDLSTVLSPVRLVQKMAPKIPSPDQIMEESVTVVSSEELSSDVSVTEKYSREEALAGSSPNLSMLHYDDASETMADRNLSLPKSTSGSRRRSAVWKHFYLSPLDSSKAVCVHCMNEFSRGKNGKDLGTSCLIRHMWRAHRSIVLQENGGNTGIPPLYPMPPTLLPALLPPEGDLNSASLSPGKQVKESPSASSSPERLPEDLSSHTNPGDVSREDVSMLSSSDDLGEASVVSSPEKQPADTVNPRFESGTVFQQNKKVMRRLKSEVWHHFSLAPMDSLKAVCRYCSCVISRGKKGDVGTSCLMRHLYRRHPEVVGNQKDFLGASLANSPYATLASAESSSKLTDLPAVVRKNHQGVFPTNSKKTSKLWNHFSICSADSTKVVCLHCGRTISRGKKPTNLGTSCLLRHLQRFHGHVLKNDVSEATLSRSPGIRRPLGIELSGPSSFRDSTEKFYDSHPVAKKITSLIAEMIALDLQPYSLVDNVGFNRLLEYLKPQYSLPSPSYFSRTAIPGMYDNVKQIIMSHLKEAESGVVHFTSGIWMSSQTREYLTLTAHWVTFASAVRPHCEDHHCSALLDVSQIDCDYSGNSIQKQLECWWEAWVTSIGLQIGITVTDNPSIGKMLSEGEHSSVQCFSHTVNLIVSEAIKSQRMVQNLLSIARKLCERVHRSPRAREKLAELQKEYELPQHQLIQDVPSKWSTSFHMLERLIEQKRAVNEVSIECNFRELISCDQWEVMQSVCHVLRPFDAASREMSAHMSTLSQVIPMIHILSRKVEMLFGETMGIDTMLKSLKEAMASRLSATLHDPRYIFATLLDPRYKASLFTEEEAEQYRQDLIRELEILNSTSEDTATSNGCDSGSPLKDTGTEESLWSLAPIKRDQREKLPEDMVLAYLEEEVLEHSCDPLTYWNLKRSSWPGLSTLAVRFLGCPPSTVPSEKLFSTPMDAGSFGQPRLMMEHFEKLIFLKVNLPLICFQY
In words: EMSA; 20 ug Zbed4, 0.5 nM oligo in 20 mM HEPES pH 7.5, 150 mM NaCl, 5 mM beta-mercaptoethanol, 5% glycerol, 0.5 mM ascorbic acid, 0.5 mM propyl gallate, 10 uM ZnSO4. Conditions: protein: recombinant; tags: C-terminal His8. A general note: A gel shift assay detects complexes by their altered migration in electrophoresis.

Take UUUUUGGGGGGGGGGUUUUU (ssRNA) [poly-ribo-G]: the binding result is “binds”.

For the molecule AAAAATGGGCGGAATAAAAA (ssDNA) [GC-box2], the binding result was “no binding”.

For the molecule AAAAAGGGGCGGGGCAAAAA (ssDNA) [GC-box1], the binding result was “binds”.

Take TTTTTTTTTTTTTTTTTTT (ssDNA) [poly-T (called 20-mer, 19 T printed)]: the binding result was “no binding”.

For the molecule AAAAAAAAAAAAAAAAAAAA (ssDNA) [poly-A (A20)], the binding result is reported as “no binding”.

With UUUUUCCCCCCCCCCUUUUU (ssRNA) [poly-ribo-C], the binding result is “no binding”.

The values above are taken from publication PMC3365051, “Sequence-Specific Binding of Recombinant Zbed4 to DNA: Insights into Zbed4 Participation in Gene Transcription and Its Association with Other Proteins”.
